Source: publication PMC3117017

Target: Nluc2-H2AX (N-terminal fragment of firefly luciferase 2 fused to the N-terminus of histone H2AX) (UniProt P16104)
Assay: split reporter

Substance: MDC1 BRCT domain fused to the C-terminal fragment of firefly luciferase 2 (Cluc) (domain or fragment)
- reporter activity, fold above background (within 3 hour of 6 Gy x-rays): 5 fold
